Test results taken from IntAct's records for PubMed 31515488.

B1: Transcription factor 12 (Homo sapiens), Q99081 (parent)
chain: MNPQQQRMAAIGTDKELSDLLDFSAMFSPPVNSGKTRPTTLGSSQFSGSGIDERGGTTSWGTSGQPSPSYDSSRGFTDSPHYSDHLNDSRLGAHEGLSPTPFMNSNLMGKTSERGSFSLYSRDTGLPGCQSSLLRQDLGLGSPAQLSSSGKPGTAYYSFSATSSRRRPLHDSAALDPLQAKKVRKVPPGLPSSVYAPSPNSDDFNRESPSYPSPKPPTSMFASTFFMQDGTHNSSDLWSSSNGMSQPGFGGILGTSTSHMSQSSSYGNLHSHDRLSYPPHSVSPTDINTSLPPMSSFHRGSTSSSPYVAASHTPPINGSDSILGTRGNAAGSSQTGDALGKALASIYSPDHTSSSFPSNPSTPVGSPSPLTGTSQWPRPGGQAPSSPSYENSLHSLQSRMEDRLDRLDDAIHVLRNHAVGPSTSLPAGHSDIHSLLGPSHNAPIGSLNSNYGGSSLVASSRSASMVGTHREDSVSLNGNHSVLSSTVTTSSTDLNHKTQENYRGGLQSQSGTVVTTEIKTENKEKDENLHEPPSSDDMKSDDESSQKDIKVSSRGRTSSTNEDEDLNPEQKIEREKERRMANNARERLRVRDINEAFKELGRMCQLHLKSEKPQTKLLILHQAVAVILSLEQQVRERNLNPKAACLKRREEEKVSAVSAEPPTTLPGTHPGLSETTNPMGHM
partner: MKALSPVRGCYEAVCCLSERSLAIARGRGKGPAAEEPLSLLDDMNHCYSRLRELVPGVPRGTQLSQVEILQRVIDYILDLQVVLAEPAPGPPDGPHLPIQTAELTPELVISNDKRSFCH
B2: Coiled-coil domain-containing protein 92 (Homo sapiens), Q53HC0 (parent)
chain: MTSPHFSSYDEGPLDVSMAATNLENQLHSAQKNLLFLQREHASTLKGLHSEIRRLQQHCTDLTYELTVKSSEQTGDGTSKSSELKKRCEELEAQLKVKENENAELLKELEQKNAMITVLENTIKEREKKYLEELKAKSHKLTLLSSELEQRASTIAYLTSQLHAAKKKLMSSSGTSDASPSGSPVLASYKPAPPKDKLPETPRRRMKKSLSAPLHPEFEEVYRFGAESRKLLLREPVDAMPDPTPFLLARESAEVHLIKERPLVIPPIASDRSGEQHSPAREKPHKAHVGVAHRIHHATPPQAQPEVKTLAVDQVNGGKVVRKHSGTDRTV
partner: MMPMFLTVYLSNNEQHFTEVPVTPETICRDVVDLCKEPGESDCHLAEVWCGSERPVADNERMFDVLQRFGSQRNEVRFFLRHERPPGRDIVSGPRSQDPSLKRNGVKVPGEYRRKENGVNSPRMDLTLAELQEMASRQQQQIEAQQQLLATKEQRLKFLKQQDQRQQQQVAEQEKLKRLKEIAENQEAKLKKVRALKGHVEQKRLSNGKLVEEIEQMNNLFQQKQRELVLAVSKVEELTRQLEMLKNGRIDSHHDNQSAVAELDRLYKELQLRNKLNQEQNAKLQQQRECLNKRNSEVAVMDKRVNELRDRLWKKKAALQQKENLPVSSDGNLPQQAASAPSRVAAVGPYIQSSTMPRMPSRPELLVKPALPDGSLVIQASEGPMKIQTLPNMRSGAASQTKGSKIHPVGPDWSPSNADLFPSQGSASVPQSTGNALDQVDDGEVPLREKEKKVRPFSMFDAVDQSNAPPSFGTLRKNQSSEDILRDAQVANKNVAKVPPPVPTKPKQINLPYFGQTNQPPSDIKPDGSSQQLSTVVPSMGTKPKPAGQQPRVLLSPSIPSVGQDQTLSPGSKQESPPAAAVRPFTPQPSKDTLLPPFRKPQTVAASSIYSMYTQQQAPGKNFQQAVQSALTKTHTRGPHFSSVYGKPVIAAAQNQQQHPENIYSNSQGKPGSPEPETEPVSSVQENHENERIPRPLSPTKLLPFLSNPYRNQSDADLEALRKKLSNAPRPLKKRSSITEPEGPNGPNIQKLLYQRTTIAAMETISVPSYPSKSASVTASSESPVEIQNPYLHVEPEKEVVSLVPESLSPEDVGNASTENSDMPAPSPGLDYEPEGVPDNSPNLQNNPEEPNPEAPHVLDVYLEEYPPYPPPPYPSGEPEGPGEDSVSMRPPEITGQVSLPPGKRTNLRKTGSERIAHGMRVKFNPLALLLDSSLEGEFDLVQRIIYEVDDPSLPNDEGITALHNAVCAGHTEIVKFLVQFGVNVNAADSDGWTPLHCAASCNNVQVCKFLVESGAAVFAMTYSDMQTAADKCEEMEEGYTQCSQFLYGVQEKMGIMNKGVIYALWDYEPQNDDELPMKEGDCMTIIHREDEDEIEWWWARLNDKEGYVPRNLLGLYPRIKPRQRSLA
B3: Caspase recruitment domain-containing protein 9 (Homo sapiens), Q9H257 (parent)
chain: MSDYENDDECWSVLEGFRVTLTSVIDPSRITPYLRQCKVLNPDDEEQVLSDPNLVIRKRKVGVLLDILQRTGHKGYVAFLESLELYYPQLYKKVTGKEPARVFSMIIDASGESGLTQLLMTEVMKLQKKVQDLTALLSSKDDFIKELRVKDSLLRKHQERVQRLKEECEAGSRELKRCKEENYDLAMRLAHQSEEKGAALMRNRDLQLEIDQLKHSLMKAEDDCKVERKHTLKLRHAMEQRPSQELLWELQQEKALLQARVQELEASVQEGKLDRSSPYIQVLEEDWRQALRDHQEQANTIFSLRKDLRQGEARRLRCMEEKEMFELQCLALRKDSKMYKDRIEAILLQMEEVAIERDQAIATREELHAQHARGLQEKDALRKQVRELGEKADELQLQVFQCEAQLLAVEGRLRRQQLETLVLSSDLEDGSPRRSQELSLPQDLEDTQLSDKGCLAGGGSPKQPFAALHQEQVLRNPHDAGLSSGEPPEKERRRLKESFENYRRKRALRKMQKGWRQGEEDRENTTGSDNTDTEGS
partner: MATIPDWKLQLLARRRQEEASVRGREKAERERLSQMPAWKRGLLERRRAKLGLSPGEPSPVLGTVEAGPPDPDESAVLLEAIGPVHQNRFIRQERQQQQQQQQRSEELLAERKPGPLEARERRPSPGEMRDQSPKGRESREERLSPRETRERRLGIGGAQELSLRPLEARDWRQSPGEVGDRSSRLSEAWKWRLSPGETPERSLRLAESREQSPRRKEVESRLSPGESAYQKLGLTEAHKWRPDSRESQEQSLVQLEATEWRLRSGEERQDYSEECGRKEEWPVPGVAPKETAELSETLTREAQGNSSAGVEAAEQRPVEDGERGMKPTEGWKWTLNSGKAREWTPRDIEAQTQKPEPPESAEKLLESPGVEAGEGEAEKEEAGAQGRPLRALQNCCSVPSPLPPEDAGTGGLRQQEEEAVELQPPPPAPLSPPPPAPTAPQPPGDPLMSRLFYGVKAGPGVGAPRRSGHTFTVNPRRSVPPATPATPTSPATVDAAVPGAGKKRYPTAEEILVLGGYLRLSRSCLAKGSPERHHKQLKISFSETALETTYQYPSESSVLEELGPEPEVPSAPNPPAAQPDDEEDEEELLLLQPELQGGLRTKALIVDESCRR
B4: Keratin, type II cytoskeletal 79 (Homo sapiens), Q5XKE5 (parent)
chain: MRSSVSRQTYSTKGGFSSNSASGGSGSQARTSFSSVTVSRSSGSGGGAHCGPGTGGFGSRSLYNLGGHKSISVSVAGGALLGRALGGFGFGSRAFMGQGAGRQTFGPACPPGGIQEVTVNQSLLTPLHVEIDPEIQRVRTQEREQIKTLNNKFASFIDKVRFLEQQNKVLETKWALLQEQGQNLGVTRNNLEPLFEAYLGSMRSTLDRLQSERGRLDSELRNVQDLVEDFKNKYEDEINKHTAAENEFVVLKKDVDAAYMGRMDLHGKVGTLTQEIDFLQQLYEMELSQVQTHVSNTNVVLSMDNNRNLDLDSIIAEVKAQYELIAQRSRAEAEAWYQTKYEELQVTAGKHGDNLRDTKNEIAELTRTIQRLQGEADAAKKQCQQLQTAIAEAEQRGELALKDAQKKLGDLDVALHQAKEDLTRLLRDYQELMNVKLALDVEIATYRKLLESEESRMSGECPSAVSISVTGNSTTVCGGGAASFGGGISLGGSGGATKGGFSTNVGYSTVKGGPVSAGTSILRKTTTVKTSSQRY

Variants of: B1
Settings: with id3_human ID3, Q02535

Row | effect of a mutation on the interaction | Variant
1 | with no effect | I11M
2 | with no effect | G300S
3 | with no effect | D565V
4 | with no effect | N479S
5 | with no effect | L483R
6 | with no effect | A458V

Variants of: B2
Settings: with aspp2_human TP53BP2, Q13625

Row | effect of a mutation on the interaction | Variant
7 | with no effect | S70C

Variants of: B3
Settings: with ppr18_human PPP1R18, Q6NYC8

Row | effect of a mutation on the interaction | Variant
8 | disrupting interaction strength | V385L

Variants of: B4
Settings: with KRT15, P19012
KRT15, P19012, sequence (P19012 whole entry): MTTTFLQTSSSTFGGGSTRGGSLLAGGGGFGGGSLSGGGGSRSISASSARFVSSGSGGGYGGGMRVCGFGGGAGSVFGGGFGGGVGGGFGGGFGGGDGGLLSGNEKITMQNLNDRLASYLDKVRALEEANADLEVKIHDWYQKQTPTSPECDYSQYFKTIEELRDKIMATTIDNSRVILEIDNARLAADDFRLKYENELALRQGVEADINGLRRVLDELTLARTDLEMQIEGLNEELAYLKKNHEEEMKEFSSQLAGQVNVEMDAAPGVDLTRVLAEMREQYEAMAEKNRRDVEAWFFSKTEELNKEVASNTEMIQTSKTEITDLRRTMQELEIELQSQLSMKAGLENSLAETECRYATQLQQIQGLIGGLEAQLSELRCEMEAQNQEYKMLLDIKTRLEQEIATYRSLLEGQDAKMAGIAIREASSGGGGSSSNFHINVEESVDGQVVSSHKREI

Row | effect of a mutation on the interaction | Variant
9 | with no effect | R30C
10 | with no effect | H266R

Variants of: B4
Settings: with kt33b_human KRT33B

Row | effect of a mutation on the interaction | Variant
11 | with no effect | H266R
